These results are taken from publication PMC7736791 (Nucleic Acids Research, 2020).

The target in series [1] is AAV2 Rep68* (Rep68 C151S) (adeno-associated virus 2 (AAV2)) (UniProt P03132). The series is described as follows: cryo-EM structure.
Series [2] shares this target. The series is described as follows: cryo-EM structure. The source holds these as a separate data set.
Series [3] has the same target. The series is described as follows: cryo-EM structure. The source holds these as a separate data set.
Series [4] shares this target. Nature of the series: cryo-EM structure. This is another data set of the same source.
Series [5] shares this target. The series is described as follows: cryo-EM structure. This is another data set of the same source.
The series “cross-linking” concerns the molecule itself. The series is described as follows: cross-linking.

“And” between values parts separate entries of the source, which are not always exact repeats. Equal values may be shown once. Read-outs that look alike come from different tables or passages of the source.

“AAV2 Rep68* (Rep68 C151S) (from UniProt P03132 1-536) (enzyme)”: the stoichiometry N (as a rule, the number of molecules, sites or subunits per partner or assembly) was 7 in series [1]; 6 and 7 in series [2]; 8 in series [3]; 6 in series [4]; 7 in series [5].

B1: AAV2 Rep68 origin binding domain (OBD) (domain or fragment, adeno-associated virus 2 (AAV2))
chain: MPGFYEIVIKVPSDLDGHLPGISDSFVNWVAEKEWELPPDSDMDLNLIEQAPLTVAEKLQRDFLTEWRRVSKAPEALFFVQFEKGESYFHMHVLVETTGVKSMVLGRFLSQIREKLIQRIYRGIEPTLPNWFAVTKTRNGAGGGNKVVDECYIPNYLLPKTQPELQWAWTNMEQYLSACLNLTERKRLVAQHLTHVSQTQEQNKENQNPN
As to B1, the “stoichiometry N” value in “cross-linking” worked out at 8.
